Data from US6716809B1, “Mage-A3 peptides presented by HLA class molecules” (priority 1997, dated 2004).

How the values were obtained:
Type in all cases: cell-based, human
clone C3.43 = assay: IFN-γ production by CD4 clone C3.43 stimulated with peptide- or protein-pulsed EBV-B cells; conditions: 20 μg/ml protein
Protocol: (§1) EBV-B cells from hemochromatosis patient 1981 (LB-1981-EBV) were incubated with 20 μg/ml of ovalbumin (OVA) or MAGE-A3 protein (bacteria) for 20 h. Ten thousand cells were distributed in microwells to which an aliquot of microculture C3 (˜4,000 effector cells) was added. Several clones were obtained from microculture C3, in particular CD4^+ clones LB1981-CD4 527/C3.22 (referred to hereafter as clone C3.22) and LB1981-CD4 527/C3.43 (referred to hereafter as clone C3.43). The clones C3.22 and C3.43 (˜3,000 cells) were stimulated with LB-1981-EBV incubated with 20 μg/ml of MAGE-A3 (˜16,000 cells) or transduced with a retrovirus coding for a fusion protein Ii-MAGE-A3 (˜20,000 cells). IFN-γ production in the supernatant was estimated after overnight culture by ELISA. They both recognized autologous EBV-B cells loaded with protein MAGE-A3 (bacteria) or transduced with a retrovirus encoding a truncated invariant chain (Ii)-MAGE-A3 fusion protein (FIG. 17). These (most probably twin) clones recognized cells expressing Ii-MAGE-A3 endogenously and therefore they are directed against a MAGE-A3-derived antigen and not against a contaminant in the batch of protein.
(§2) The antigenic peptides were identified as described above, except that the peptides were tested at a concentration of 1 μg/ml and that the test was performed in 100 μl. Peptides LGDPKKLLTQHFVQEN (SEQ ID NO:82), KKLLTQHFVQENYLEY (SEQ ID NO:83), TQHFVQENYLEYRQVP (SEQ ID NO:84) and VQENYLEYRQVPGSDP (SEQ ID NO:85) were tested. Autologous EBV-B cells were incubated for 1 h with 1 μg/ml of each of the peptides. Clone C3.43 (3,000 cells) was then cocultured with 20,000 peptide-pulsed cells for 20 h. IFN-γ production in the supernatant was measured by ELISA.
(§3) Patient LB1981 was typed DPB1*0401. To confirm that DPB1*0401 was the presenting HLA-DP molecule, additional EBV-B cell lines were tested. Autologous LB 1981-EBV or allogeneic-EBV-B cells were incubated for 1 h with 1 μg/ml of peptides, and washed. CD4 clones (3,000 cells) were then incubated for 20 h with 20,000 peptide-pulsed EBV-B cells. IFN-γ released in the supernatant was measured by ELISA. Those EBV-B cell lines expressing DPB1*0401 were able to present the MAGE-A3243-258 peptide to clone C3.22 (Table VII). DPB1*0401 is expressed in approximately 64% of Caucasians.

[1] = test system: CD4 T cell clone LB 1555 CD4 436/B6.37; assay: Recognition of retrovirally transduced cells by CD4 T cell clone (IFN-γ ELISA); conditions: overnight coculture
Protocol: The EBV transformed cells were infected by resuspending the cells in an infection cocktail and centrifugation. Target cells were resuspended in 60 mm tissue culture plates (Falcon) at a density of 1.0×10^6 cells in 4 ml infection cocktail. The plates were centrifuged for 2 hours at 32° C. and 1200 rcf in an IEC centrifuge, rotor type 228. For each plate to be transduced, 4 ml of […] was prepared by diluting the viral supernatant 1:2 in EBV cell growth medium and adding protamine sulfate to a final concentration of 6 μg/ml. Centrifugation was followed by another 2 hours of incubation in a humidified incubator at 37° C. and cells were transferred to 4 ml of target cell growth medium. This transduction cycle was carried out immediately after plating the cells and was repeated at 24 and 48 hours. […]
5000 T cells of LB705 CTL 434/1 or 3000 T cells of clone LB1555 CD4 436/B6.37 were washed and cultured overnight in the presence of 5000 retrovirally transduced EBV B cells of MZ2-EBV, or LG2-EBV B cells, in 100 μl ID medium containing 10% HS, AAG and 50 U/ml rh IL-2 in a round-bottom 96 wells plate. […] After three washings the plates were incubated with 50 μl per well horseradish peroxidase conjugated streptavidin (1:3000 in PBS/0.5% BSA) for 30 min at RT, which was detected by TMB substrate, and H2SO4 to stop the reaction. The optical density was read at 450 nm. […]

clone C3.22 = assay: IFN-γ production by CD4 clone C3.22 stimulated with peptide- or protein-pulsed EBV-B cells; conditions: 20 μg/ml protein
Protocol: as §1, §2, §3

B1: MAGE-A3: MAGE-A3 protein; recombinant His-MAGE-A3 produced in E. coli, or expressed from MFG MAGE-A3 retrovirus in Example 6 (protein, listed as Homo sapiens)
chain: MPLEQRSQHCKPEEGLEARGEALGLVGAQAPATEEQEAASSSSTLVEVTLGEVPAAESPDPPQSPQGASSLPTTMNYPLWSQSYEDSSNQEEEGPSTFPDLESEFQAALSRKVAELVHFLLLKYRAREPVTKAEMLGSVVGNWQYFFPVIFSKASSSLQLVFGIELMEVDPIGHLYIFATCLGLSYDGLLGDNQIMPKAGLLIIVLAIIAREGDCAPEEKIWEELSVLEVFEGREDSILGDPKKLLTQHFVQENYLEYRQVPGSDPACYEFLWGPRALVETSYVKVLHHMVKISGGPHISYPPLHEWVLREGEE
modifications: His tag
Clone C3.43
  recognition by clone C3.43 of autologous EBV-B cells loaded with protein: recognized
[1]
  recognition of transduced MZ2 EBV by CD4 clone 436/B6.37 (IFN-γ release): not recognized
Clone C3.22
  recognition by clone C3.22 of autologous EBV-B cells loaded with protein: recognized
